Reference: patent publication US20070077603A1 (published 2007)

Experiments:
Assay in all cases: ligand blot from native 4-15% PAGE of Sephacryl-300 fractions of hirudin-plasma
[1] = molecular target: T1, Protein S-C4b-binding protein complex in fractionated hirudin-plasma (human, UniProt P07225 42-676; P04003 49-597; P20851 18-252)
T1 construct: Native complex from plasma; also called PS-C4BP; Cx
T1 sequence (looked up) 1: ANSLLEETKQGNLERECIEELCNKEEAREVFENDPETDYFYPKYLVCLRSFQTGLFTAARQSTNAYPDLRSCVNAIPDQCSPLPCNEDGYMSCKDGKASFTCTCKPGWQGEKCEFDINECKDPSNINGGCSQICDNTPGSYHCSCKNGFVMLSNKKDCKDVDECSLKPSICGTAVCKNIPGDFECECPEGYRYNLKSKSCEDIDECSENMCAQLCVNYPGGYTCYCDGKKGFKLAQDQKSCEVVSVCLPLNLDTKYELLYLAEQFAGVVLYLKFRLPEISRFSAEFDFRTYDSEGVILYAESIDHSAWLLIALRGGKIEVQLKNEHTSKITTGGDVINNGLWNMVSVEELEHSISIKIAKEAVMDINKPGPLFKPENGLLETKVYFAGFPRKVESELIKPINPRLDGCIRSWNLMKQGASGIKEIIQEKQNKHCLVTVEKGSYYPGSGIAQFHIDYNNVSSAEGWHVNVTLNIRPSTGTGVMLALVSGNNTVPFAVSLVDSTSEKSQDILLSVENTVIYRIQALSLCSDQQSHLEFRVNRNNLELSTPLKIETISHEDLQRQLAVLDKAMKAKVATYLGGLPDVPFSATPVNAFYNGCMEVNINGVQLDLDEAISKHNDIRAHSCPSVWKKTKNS
T1 sequence (looked up) 2: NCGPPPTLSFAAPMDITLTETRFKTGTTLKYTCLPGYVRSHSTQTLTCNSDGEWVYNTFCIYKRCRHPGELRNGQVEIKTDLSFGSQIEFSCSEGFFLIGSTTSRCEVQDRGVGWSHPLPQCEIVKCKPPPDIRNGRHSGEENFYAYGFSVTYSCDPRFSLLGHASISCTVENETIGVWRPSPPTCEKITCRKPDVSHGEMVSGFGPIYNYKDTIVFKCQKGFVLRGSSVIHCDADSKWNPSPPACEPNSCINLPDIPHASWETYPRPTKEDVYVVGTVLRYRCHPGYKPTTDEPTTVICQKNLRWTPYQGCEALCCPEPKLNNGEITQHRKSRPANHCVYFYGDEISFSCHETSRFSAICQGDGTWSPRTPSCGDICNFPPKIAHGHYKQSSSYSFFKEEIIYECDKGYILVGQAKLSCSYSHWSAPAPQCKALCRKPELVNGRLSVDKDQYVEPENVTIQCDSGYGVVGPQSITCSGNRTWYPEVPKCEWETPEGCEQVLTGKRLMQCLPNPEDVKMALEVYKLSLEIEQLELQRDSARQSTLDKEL
T1 sequence (looked up) 3: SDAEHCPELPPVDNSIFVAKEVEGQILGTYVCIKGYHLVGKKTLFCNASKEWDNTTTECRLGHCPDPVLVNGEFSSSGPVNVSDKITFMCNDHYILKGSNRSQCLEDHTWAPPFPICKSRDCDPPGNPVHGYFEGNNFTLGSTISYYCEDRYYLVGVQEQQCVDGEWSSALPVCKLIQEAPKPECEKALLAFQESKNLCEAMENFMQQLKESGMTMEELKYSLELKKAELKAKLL
Protocol: (§1) Gel filtration - - - Purified protein S preparations or hirudin-plasma (200 μl ) were fractionated on a 1×30 cm Superose-6 HR column using Fast Performance Liquid Chromatography (Amersham-Pharmacia, Piscattaway, N.J.) at a flow rate of 0.4 ml/min in Hepes-buffered saline (HBS). Hirudin and citrated plasmas (300 ul) were each mixed with 700 μl of 50 mM benzamidine and fractionated on a 1.6×60 cm Sephacryl-300 column at a flow rate of 0.4 ml/min in Tris-buffered saline. Fractions were analyzed for protein S antigen by ELISA, for protein S multimers by native PAGE, and for PS-direct. ELISAs were also performed on the fractions for FV, FX, and C4BP antigens
(§2) To further separate protein S forms in plasma, hirudin-plasma and citrated plasma were each subjected to gel filtration on a larger column (FIGS. 8B and 8C). […] Biotin-FXa could ligand blot (Heeb, et al. Protein S binds to and inhibits factor Xa. Proc Natl Acad Sci USA. 1994;91:2728-2732) to PS-C4BP, multimeric and monomeric protein S in fractionated hirudin plasma (FIG. 8C).

[2] = molecular target: T2, multimeric protein S in plasma (human, UniProt P07225 42-676)
T2 construct: mature; also called protein S multimers in plasma; putative protein S multimers
T2 sequence (looked up): T1 sequence (looked up) 1
Protocol: as §1, §2

[3] = molecular target: T3, monomeric protein S in plasma (human, UniProt P07225 42-676)
T3 construct: mature; also called monomers
T3 sequence (looked up): T1 sequence (looked up) 1
Protocol: as §1, §2

Measured: binding result

B1: Biotin-FX (other)
chain 1: ANSFLEEMKKGHLERECMEETCSYEEAREVFEDSDKTNEFWNKYKDGDQCETSPCQNQGKCKDGLGEYTCTCLEGFEGKNCELFTRKLCSLDNGDCDQFCHEEQNSVVCSCARGYTLADNGKACIPTGPYPCGKQTLER
chain 2: SVAQATSSSGEAPDSITWKPYDAADLDPTENPFDLLDFNQTQPERGDNNLTRIVGGQECKDGECPWQALLINEENEGFCGGTILSEFYILTAAHCLYQAKRFKVRVGDRNTEQEEGGEAVHEVEVVIKHNRFTKETYDFDIAVLRLKTPITFRMNVAPACLPERDWAESTLMTQKTGIVSGFGRTHEKGRQSTRLKMLEVPYVDRNSCKLSSSFIITQNMFCAGYDTKQEDACQGDSGGPHVTRFKDTYFVTGIVSWGEGCARKGKYGIYTKVTAFLKWIDRSMKTRGLPKAKSHAPEVITSSPLK
modifications: biotinylated (sites not given)
no binding: [1] | [2] | [3]
